Laboratory results from the supplement of paper PMC10567573.
± gives the standard deviation.

Test: protein stability index of a GFP-peptide fusion (GPS, HEK-293T) (PSI 1-6); higher = more stable
Settings: c terminus: a fixed tail appended
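Further: 24-mer peptide tiles fused after GFP, lentivirally expressed, FACS-sorted into six equal bins by GFP/DsRed ratio, decoded by Illumina sequencing, PSI is the read-weighted mean bin number.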

Sequence	protein stability index (treatment: DMSO)	protein stability index (treatment: MLN4924 1 uM, 8 h)
EGSLQQPKAQSAMSPYLVPDTQAL [SMG5]	4.39 ± 0.27	4.5 ± 0.18
EHAIAEAQKNMYFKTRLKCPRSLS [ZNF396]	3.26 ± 0.23	3.53 ± 0.3
EHSHRSHHSLASSLRSHHTHPSYG [DVL3]	3.48 ± 0.25	3.56 ± 0.19
EIPIHGNGEARQLPEDDGLEQDLQ [ARFIP2]	5.04 ± 0.36	5.28 ± 0.12
EKETMQFLNDRLANYLEKVRQLER [KRT36]	2.87 ± 0.38	2.85 ± 0.32
EKFSSSLHELSSRVEASHLTTSQE [FBF1]	4.99 ± 0.19	5.01 ± 0.11
EKGTWTELEGDVAEPLAGPACVTV [KLHL14]	4.66 ± 0.19	4.6 ± 0.19
EKRNAGNAVRSAMKSEEQKIKDAR [KMT5A]	4.72 ± 0.15	5.09 ± 0.21
EKYSVATQLFIGGVTGWCTGFIFQ [FUNDC2]	2.75 ± 0.75	3.06 ± 0.35
ELDELQLCKNCFYLSNARPDNWFC [ZMYND11]	2.01 ± 0.25	2.3 ± 0.62
ELDLSLSDLNEVPVKELAALPKAT [LRRC59]	4.4 ± 0.25	4.49 ± 0.29
ELDPEVEGTKPSATEMIWAVLAAF [GOLPH3L]	2.21 ± 0.36	2.37 ± 0.28
ELGEEAMEKFREDEGFIKEEERPL [KCNA1]	5.6 ± 0.31	5.63 ± 0.2
ELLQQLDLNNCKNNLEPILEGYIS [KRT71]	2.54 ± 0.1	2.62 ± 0.36
ELNFISVFWPQLPNGLEAAYEFAD [MMP1]	2.45 ± 0.47	2.15 ± 0.59
ELRDSSAYHVPNRTLASGRLLSYR [DNAAF3]	3.04 ± 0.11	3.25 ± 0.096
ELRLQSEAFKKHSLDLLSKERELN [CCDC89]	3.8 ± 0.2	3.69 ± 0.42
ELRNVQDVVEDYKKRYEEEINKRT [KRT71]	3.62 ± 0.35	4.45 ± 0.24
EMAFNTRCKEENTIILQQLLPLRT [NLN]	2.54 ± 0.55	2.5 ± 0.32
EMEKSFREEEKTFWKKYRTFWKED [CCDC70]	3.77 ± 0.31	3.67 ± 0.35
EMRTKEQILELLVLEQFLTILPQE [ZNF263]	2.44 ± 0.35	2.26 ± 0.43
ENAGGSPSPEPAGRRAALYVHWPY [RSAD1]	3 ± 0.4	3.23 ± 0.34

Sequence	protein stability index (treatment: DMSO)	protein stability index (treatment: MLN4924 1 uM, 8 h)
ENHQPVSLSDLEIQASAGVISKKA [ZNF75A]	4.94 ± 0.19	4.98 ± 0.39
EPCGPGKSKLTYMCRVDLRGHMPE [DLC1]	2.45 ± 0.29	2.11 ± 0.52
EPGPAAYGLKPLTPNSKYVKLNVG [KCTD13]	3.66 ± 0.11	3.62 ± 0.31
EPPPKSGPSLVPGKTPTVRAALIC [CD207]	3 ± 0.15	3 ± 0.23
EQAKKESEDQKRLKQAKELDRERA [CHCHD3]	5.57 ± 0.24	5.48 ± 0.17
EQAQAYAERLGVTFFEVSPLCNFN [RAB40A]	2.25 ± 0.26	2.48 ± 0.3
EQIAERKRKMVSWEASSLGLVTAA [KMT2E]	2.65 ± 0.45	3.33 ± 0.76
EQLFFVRLVGKTPIETLIRDMLLS [NR2F2]	2.56 ± 0.47	2.42 ± 0.61
ERPMYGRDSAYQSITHYRPVSASR [EMD]	3.81 ± 0.26	3.76 ± 0.28
ERRRELVRSQTLPRTSEAQARKAL [SMTNL2]	5.27 ± 0.39	5.27 ± 0.29
ERTWPPPAMSPYWRTWMTITQSWQ [C22orf15]	2.31 ± 0.58	1.94 ± 0.32
ESAQATFQAHRDKYEKLRGDVAIK [ARFIP2]	4.37 ± 0.16	4.62 ± 0.18
ESIVPIPSSNEEIRLVDDAFGKIC [INTS4]	4.05 ± 0.35	4.29 ± 0.32
ESKKHQVETAFERLQQELEQQRCL [TRIM15]	4.61 ± 0.31	4.53 ± 0.12
ESLSSQLSNLQKESRACLERIQEL [LMNB1]	4.28 ± 0.14	4.38 ± 0.13
ESQKKKQQDDSDEYDDDDSAASTS [ZNF207]	5.7 ± 0.1	5.53 ± 0.18
ESTNPEKAHETLHQSLSLASSPKG [CDC25A]	5.37 ± 0.37	5.45 ± 0.27
ETTGIQIWSEVFTVEKPGGKKVAV [ATL3]	2.79 ± 0.24	3.01 ± 0.2
EVLVKSNNLTDRIVVIPGKVEEVS [CARM1]	3.66 ± 0.19	3.8 ± 0.43
EVVPALEPTETLLSEKEINAREES [BCL2L13]	5.6 ± 0.13	5.58 ± 0.22
EWENNRESLIVFMEQVHRGIKGLV [CPXM2]	2.27 ± 0.56	2.07 ± 0.37
EWIRFDQSNVLCSIFGICMVFSGL [PTGFR]	2.87 ± 0.59	3.15 ± 0.071

Sequence	protein stability index (treatment: DMSO)	protein stability index (treatment: MLN4924 1 uM, 8 h)
FAAEAGHIDIVKELIKWRAAIVVN [FEM1B]	2.3 ± 0.28	2.02 ± 0.55
FCREEMGEVLKSSTFSSGPSDKMK [SPOPL]	3.53 ± 0.41	3.69 ± 0.23
FDLERENACATKEQKNHTFPRLNR [PLD5]	4.55 ± 0.37	4.75 ± 0.28
FEEQENYFLLCDVLPEDRILREEL [ZNF277]	3.26 ± 0.16	3.5 ± 0.67
FEEYALVNQDILENKESWDKILAL [PRIM1]	3.3 ± 0.31	3.6 ± 0.45
FETMAIEIEQLLARLTGVNDKMAE [GOSR1]	3.06 ± 0.2	3.15 ± 0.38
FGHRFIILDTDEYVLKYMESNAAQ [EFHC1]	2.25 ± 0.45	2.05 ± 0.31
FHNAVSAYFAGNQKQLEQTLQQFN [ARFIP2]	2.45 ± 0.23	2.34 ± 0.42
FHPDPRQKALYRRLATVHMSRMIN [CLPTM1]	2.58 ± 0.55	2.39 ± 0.25
FHVDSAAEYYRLHLEGYHGTAGDS [TNXB]	2.81 ± 0.27	3.17 ± 0.31
FITRQLKGLEDTKSPQFNRYFYLL [PDS5B]	2.01 ± 0.37	2.11 ± 0.16
FIVLFLLWPFAWLQVAGLSEEQLQ [LPCAT4]	2.65 ± 0.13	3.05 ± 0.59
FKHPSIRNPVSLVVTRLVILGSGE [ADAMTS4]	–	3.03 ± 0.97
FKRRRVRRRRMETIVFLDKEVFAS [PCMTD2]	2.62 ± 0.16	2.86 ± 0.33
FLPHHIMVKIFRLLPTKSLVALKC [FBXO34]	2.76 ± 0.39	2.29 ± 0.74
FLRQKVLSLPLPDPLKYYLLYYRE [PCMTD2]	2.24 ± 0.34	2.26 ± 0.31
FLSSEKQICGTHRQTKKMFCDMDK [TRIM43]	3.18 ± 0.33	3.4 ± 0.19
FLTVGSVLQMWHIVDKCTELLREG [ZBTB22]	3.09 ± 0.55	3.4 ± 0.32
FLTYVPLLGLKAFLGLFFIVRFLE [FADS1]	2.56 ± 0.6	2.17 ± 0.67
FNDPFFIVETVCIVWFSFEFVVRC [KCNA4]	3.38 ± 0.68	3.45 ± 0.98
FPHPLWLRDTYKLWVPQPPPRTIK [PWWP2B]	2.33 ± 0.17	2.71 ± 0.33
